# T1: N-terminal tagged His10-PirA^vp (Vibrio parahaemolyticus)
# T1 chain: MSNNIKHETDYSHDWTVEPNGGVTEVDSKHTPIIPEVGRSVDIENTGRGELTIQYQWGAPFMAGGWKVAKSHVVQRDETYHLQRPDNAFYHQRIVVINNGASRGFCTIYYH
# B1: C-terminal tagged His6-PirB^vp (natural protein)
# chain: MTNEYVVTMSSLTEFNPNNARKSYLFDNYEVDPNYAFKAMVSFGLSNIPYAGGFLSTLWNIFWPNTPNEPDIENIWEQLRDRIQDLVDESIIDAINGILDSKIKETRDKIQDINETIENFGYAAAKDDYIGLVTHYLIGLEENFKRELDGDEWLGYAILPLLATTVSLQITYMACGLDYKDEFGFTDSDVHKLTRNIDKLYDDVSSYITELAAWADNDSYNNANQDNVYDEVMGARSWCTVHGFEHMLIWQKIKELKKVDVFVHSNLISYSPAVGFPSGNFNYIATGTEDEIPQPLKPNMFGERRNRIVKIESWNSIEIHYYNRVGRLKLTYENGEVVELGKAHKYDEHYQSIELNGAYIKYVDVIANGPEAIDRIVFHFSDDRTFVVGENSGKPSVRLQLEGHFICGMLADQEGSDKVAAFSVAYELFHPDEFGTEK
# Key:
# [1] = target: T1, N-terminal tagged His10-PirA^vp; test: ITC; iTC200; 1100 uM PirB^vp in the syringe injected into 110 uM PirA^vp in the cell, 19 injections of 2 uL, 25 °C; 30 mM Tris pH 8.0, 100 mM NaCl, 5% glycerol, 1 mM DTT; triplicate; conditions: both partners purified
# [2] = target: T1, N-terminal tagged His10-PirA^vp; test: SDS-PAGE densitometry of the complex collected from gel filtration; complex fractions eluted at 12.5 to 13 mL, serially diluted, SDS-PAGE; bands quantified with Image J against standard curves of PirA^vp and PirB^vp; conditions: both partners purified
binder,measurement,setting,value
B1,Kd,[1],7.33 ± 1.2 µM
same,dH,[1],-25.7 ± 1.42 kcal/mol
same,stoichiometry N,[1],0.74 ± 0.01
same,stoichiometry N,[2],1.1 PirA^vp per PirB^vp

# — PMC6520838, “Structural Insights to the Heterotetrameric Interaction between the Vibrio parahaemolyticus PirA^vp and PirB^vp Toxins and Activation of the Cry-Like Pore-Forming Domain” (Toxins, 2019)
